Results: publication doi:10.1101/2019.12.26.888982 (bioRxiv, 2019)

B1: Human TRPA1 (MBP-TRPA1) modified with BODIPY-iodoacetamide (BIA) (natural protein)
chain: KRSLRKMWRPGEKKEPQGVVYEDVPDDTEDFKESLKVVFEGSAYGLQNFNKQKKLKRCDDMDTFFLHYAAAEGQIELMEKITRDSSLEVLHEMDDYGNTPLHCAVEKNQIESVKFLLSRGANPNLRNFNMMAPLHIAVQGMNNEVMKVLLEHRTIDVNLEGENGNTAVIIACTTNNSEALQILLKKGAKPCKSNKWGCFPIHQAAFSGSKECMEIILRFGEEHGYSRQLHINFMNNGKATPLHLAVQNGDLEMIKMCLDNGAQIDPVEKGRCTAIHFAATQGATEIVKLMISSYSGSVDIVNTTDGCHETMLHRASLFDHHELADYLISVGADINKIDSEGRSPLILATASASWNIVNLLLSKGAQVDIKDNFGRNFLHLTVQQPYGLKNLRPEFMQMQQIKELVMDEDNDGCTPLHYACRQGGPGSVNNLLGFNVSIHSKSKDKKSPLHFAASYGRINTCQRLLQDISDTRLLNEGDLHGMTPLHLAAKNGHDKVVQLLLKKGALFLSDHNGWTALHHASMGGYTQTMKVILDTNLKCTDRLDEDGNTALHFAAREGHAKAVALLLSHNADIVLNKQQASFLHLALHNKRKEVVLTIIRSKRWDECLKIFSHNSPGNKCPITEMIEYLPECMKVLLDFCMLHSTEDKSCRDYYIEYNFKYLQCPLEFTKKTPTQDVIYEPLTALNAMVQNNRIELLNHPVCKEYLLMKWLAYGFRAHMMNLGSYCLGLIPMTILVVNIKPGMAFNSTGIINETSDHSEILDTTNSYLIKTCMILVFLSSIFGYCKEAGQIFQQKRNYFMDISNVLEWIIYTTGIIFVLPLFVEIPAHLQWQCGAIAVYFYWMNFLLYLQRFENCGIFIVMLEVILKTLLRSTVVFIFLLLAFGLSFYILLNLQDPFSSPLLSIIQTFSMMLGDINYRESFLEPYLRNELAHPVLSFAQLVSFTIFVPIVLMNLLIGLAVGDIAEVQKHASLKRIAMQVELHTSLEKKLPLWFLRKVDQKSTIVYPNKPRSGGMLFHIFCFLFCTGEIRQEIPNADKSLEMEILKQKYRLKDLTFLLEKQHELIKLIIQKMEIISETEDDDSHCSFQDRFKKEQMEQRNSRWNTVLRAVKAKTHHLEP
modifications: BODIPY-IA (BIA) covalent adduct at Cys621
B2: Human TRPA1 (N-terminal-tagged MBP-TRPA1), unmodified (apo or with the antagonist A-967079) (natural protein)
chain: MKRSLRKMWRPGEKKEPQGVVYEDVPDDTEDFKESLKVVFEGSAYGLQNFNKQKKLKRCDDMDTFFLHYAAAEGQIELMEKITRDSSLEVLHEMDDYGNTPLHCAVEKNQIESVKFLLSRGANPNLRNFNMMAPLHIAVQGMNNEVMKVLLEHRTIDVNLEGENGNTAVIIACTTNNSEALQILLKKGAKPCKSNKWGCFPIHQAAFSGSKECMEIILRFGEEHGYSRQLHINFMNNGKATPLHLAVQNGDLEMIKMCLDNGAQIDPVEKGRCTAIHFAATQGATEIVKLMISSYSGSVDIVNTTDGCHETMLHRASLFDHHELADYLISVGADINKIDSEGRSPLILATASASWNIVNLLLSKGAQVDIKDNFGRNFLHLTVQQPYGLKNLRPEFMQMQQIKELVMDEDNDGCTPLHYACRQGGPGSVNNLLGFNVSIHSKSKDKKSPLHFAASYGRINTCQRLLQDISDTRLLNEGDLHGMTPLHLAAKNGHDKVVQLLLKKGALFLSDHNGWTALHHASMGGYTQTMKVILDTNLKCTDRLDEDGNTALHFAAREGHAKAVALLLSHNADIVLNKQQASFLHLALHNKRKEVVLTIIRSKRWDECLKIFSHNSPGNKCPITEMIEYLPECMKVLLDFCMLHSTEDKSCRDYYIEYNFKYLQCPLEFTKKTPTQDVIYEPLTALNAMVQNNRIELLNHPVCKEYLLMKWLAYGFRAHMMNLGSYCLGLIPMTILVVNIKPGMAFNSTGIINETSDHSEILDTTNSYLIKTCMILVFLSSIFGYCKEAGQIFQQKRNYFMDISNVLEWIIYTTGIIFVLPLFVEIPAHLQWQCGAIAVYFYWMNFLLYLQRFENCGIFIVMLEVILKTLLRSTVVFIFLLLAFGLSFYILLNLQDPFSSPLLSIIQTFSMMLGDINYRESFLEPYLRNELAHPVLSFAQLVSFTIFVPIVLMNLLIGLAVGDIAEVQKHASLKRIAMQVELHTSLEKKLPLWFLRKVDQKSTIVYPNKPRSGGMLFHIFCFLFCTGEIRQEIPNADKSLEMEILKQKYRLKDLTFLLEKQHELIKLIIQKMEIISETEDDDSHCSFQDRFKKEQMEQRNSRWNTVLRAVKAKTHHLEP
B3: Human TRPA1 (MBP-TRPA1) modified with iodoacetamide (IA), activated state (natural protein)
chain: MKRSLRKMWRPGEKKEPQGVVYEDVPDDTEDFKESLKVVFEGSAYGLQNFNKQKKLKRCDDMDTFFLHYAAAEGQIELMEKITRDSSLEVLHEMDDYGNTPLHCAVEKNQIESVKFLLSRGANPNLRNFNMMAPLHIAVQGMNNEVMKVLLEHRTIDVNLEGENGNTAVIIACTTNNSEALQILLKKGAKPCKSNKWGCFPIHQAAFSGSKECMEIILRFGEEHGYSRQLHINFMNNGKATPLHLAVQNGDLEMIKMCLDNGAQIDPVEKGRCTAIHFAATQGATEIVKLMISSYSGSVDIVNTTDGCHETMLHRASLFDHHELADYLISVGADINKIDSEGRSPLILATASASWNIVNLLLSKGAQVDIKDNFGRNFLHLTVQQPYGLKNLRPEFMQMQQIKELVMDEDNDGCTPLHYACRQGGPGSVNNLLGFNVSIHSKSKDKKSPLHFAASYGRINTCQRLLQDISDTRLLNEGDLHGMTPLHLAAKNGHDKVVQLLLKKGALFLSDHNGWTALHHASMGGYTQTMKVILDTNLKCTDRLDEDGNTALHFAAREGHAKAVALLLSHNADIVLNKQQASFLHLALHNKRKEVVLTIIRSKRWDECLKIFSHNSPGNKCPITEMIEYLPECMKVLLDFCMLHSTEDKSCRDYYIEYNFKYLQCPLEFTKKTPTQDVIYEPLTALNAMVQNNRIELLNHPVCKEYLLMKWLAYGFRAHMMNLGSYCLGLIPMTILVVNIKPGMAFNSTGIINETSDHSEILDTTNSYLIKTCMILVFLSSIFGYCKEAGQIFQQKRNYFMDISNVLEWIIYTTGIIFVLPLFVEIPAHLQWQCGAIAVYFYWMNFLLYLQRFENCGIFIVMLEVILKTLLRSTVVFIFLLLAFGLSFYILLNLQDPFSSPLLSIIQTFSMMLGDINYRESFLEPYLRNELAHPVLSFAQLVSFTIFVPIVLMNLLIGLAVGDIAEVQKHASLKRIAMQVELHTSLEKKLPLWFLRKVDQKSTIVYPNKPRSGGMLFHIFCFLFCTGEIRQEIPNADKSLEMEILKQKYRLKDLTFLLEKQHELIKLIIQKMEIISETEDDDSHCSFQDRFKKEQMEQRNSRWNTVLRAVKAKTHHLEP
modifications: iodoacetamide covalent adduct at Cys621; weaker density at Cys665, which may reflect partial modification

Target: the molecule itself
Experiment: cryo-EM structure

Binding result, binds:
B1
B2
B3
